Source: IntAct's records for PubMed 18826941

B1: N-acetyllactosaminide beta-1,3-N-acetylglucosaminyltransferase 2 (Homo sapiens), Q9NY97 (parent)
chain: MSVGRRRIKLLGILMMANVFIYFIMEVSKSSSQEKNGKGEVIIPKEKFWKISTPPEAYWNREQEKLNRQYNPILSMLTNQTGEAGRLSNISHLNYCEPDLRVTSVVTGFNNLPDRFKDFLLYLRCRNYSLLIDQPDKCAKKPFLLLAIKSLTPHFARRQAIRESWGQESNAGNQTVVRVFLLGQTPPEDNHPDLSDMLKFESEKHQDILMWNYRDTFFNLSLKEVLFLRWVSTSCPDTEFVFKGDDDVFVNTHHILNYLNSLSKTKAKDLFIGDVIHNAGPHRDKKLKYYIPEVVYSGLYPPYAGGGGFLYSGHLALRLYHITDQVHLYPIDDVYTGMCLQKLGLVPEKHKGFRTFDIEEKNKNNICSYVDLMLVHSRKPQEMIDIWSQLQSAHLKC
partner: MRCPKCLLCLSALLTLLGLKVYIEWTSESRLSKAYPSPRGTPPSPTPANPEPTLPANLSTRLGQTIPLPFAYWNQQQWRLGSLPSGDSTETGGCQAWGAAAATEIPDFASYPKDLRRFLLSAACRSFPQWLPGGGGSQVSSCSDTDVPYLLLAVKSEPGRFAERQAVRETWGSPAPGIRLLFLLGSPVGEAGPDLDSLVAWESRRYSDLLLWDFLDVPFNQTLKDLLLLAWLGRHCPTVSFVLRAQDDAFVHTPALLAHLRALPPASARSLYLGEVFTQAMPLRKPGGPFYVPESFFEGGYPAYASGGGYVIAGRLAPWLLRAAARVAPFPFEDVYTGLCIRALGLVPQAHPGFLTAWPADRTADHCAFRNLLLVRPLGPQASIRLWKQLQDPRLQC
B2: "UDP-GlcNAc:betaGal beta-1,3-N-acetylglucosaminyltransferase 8" (Homo sapiens), Q7Z7M8 (parent)
chain: B1 partner
partner: B1 chain

Variants of: B1
Conditions: with B3GNT8, Q7Z7M8

| Variant | effect of a mutation on the interaction |
| --- | --- |
| D245A | with no effect |

Variants of: B2
Conditions: with B3GNT2, Q9NY97

| Variant | effect of a mutation on the interaction |
| --- | --- |
| Q246A | with no effect |
